Assay results from article PMC11861921.

Columns and labels:
[1] = biological target: human Kv1.3 channel (human) (UniProt P22001)
[2] = biological target: rat brain synaptosomes (sites that bind 125I-charybdotoxin); experiment: radioligand binding
[3] = biological target: rat brain synaptosomes (sites that bind 125I-apamin); experiment: radioligand binding; competition with 125I-apamin on rat brain synaptosomes

Sequence of UniProt P22001 (P22001 whole entry): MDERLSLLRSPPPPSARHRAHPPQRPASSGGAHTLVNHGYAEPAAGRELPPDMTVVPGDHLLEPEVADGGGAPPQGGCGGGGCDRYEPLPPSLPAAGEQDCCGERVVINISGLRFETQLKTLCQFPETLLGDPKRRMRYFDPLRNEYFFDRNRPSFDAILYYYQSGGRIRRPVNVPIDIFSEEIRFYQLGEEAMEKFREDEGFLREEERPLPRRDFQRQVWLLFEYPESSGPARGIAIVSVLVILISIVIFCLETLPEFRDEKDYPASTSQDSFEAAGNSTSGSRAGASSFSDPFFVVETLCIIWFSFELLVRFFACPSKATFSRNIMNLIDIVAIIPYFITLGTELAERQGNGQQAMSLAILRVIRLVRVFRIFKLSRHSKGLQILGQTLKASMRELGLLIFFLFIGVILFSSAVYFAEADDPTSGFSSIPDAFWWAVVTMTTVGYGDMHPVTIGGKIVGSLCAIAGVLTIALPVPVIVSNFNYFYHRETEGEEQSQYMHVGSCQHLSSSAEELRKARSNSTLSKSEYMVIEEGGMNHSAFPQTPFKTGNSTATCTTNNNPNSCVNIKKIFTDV

| Substance | decrease in Kv1.3 maximum current, patch-clamp (voltage clamp, whole-cell configuration) on HEK293T cells [1] [%] | IC50 [2] [nM] | IC50 [3] [nM] |
| --- | --- | --- | --- |
| Tb11a (peptide) | 50 | – | – |
| MTX1 (peptide) | – | 5 | 1.7 |
